# Test results published in patent US20110151448A1 (GENEPROTECH, published 2011).
# Side chains are listed from the residue outwards. Ends that are not written are not given here. hairpin oligonucleotide = not defined here
# T1: RAD51 (UniProt Q08297 1-339, limits assumed)
# T1 sequence (looked up): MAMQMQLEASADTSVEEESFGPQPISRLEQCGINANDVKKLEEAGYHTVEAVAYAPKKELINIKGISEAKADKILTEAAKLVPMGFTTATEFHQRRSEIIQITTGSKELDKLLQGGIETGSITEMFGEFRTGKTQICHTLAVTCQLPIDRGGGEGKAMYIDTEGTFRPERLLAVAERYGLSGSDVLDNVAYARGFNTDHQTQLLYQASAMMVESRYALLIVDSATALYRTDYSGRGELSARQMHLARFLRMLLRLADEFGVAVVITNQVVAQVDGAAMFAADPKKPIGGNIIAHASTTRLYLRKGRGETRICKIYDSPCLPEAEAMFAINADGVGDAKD
# Key:
# RAD51 [1] = biological target: T1, RAD51; experiment: cell-based or functional assay
# RAD51 [2] = biological target: T1, RAD51; experiment: cell-based or functional assay; remark: listed apart in the source
binder,measurement,setting,value
"RAD52 bait peptide (mouse RAD52 residues 294-344 with an added C-terminal cysteine), as attached to the targeting vector RAD52-HPRT-NLS (reading uncertain; also: conjugated via oligonucleotide to HPRT targeting DNA) peptide: VAAKHAAVLPAPPKHSTPVTAASELLQEKVVFPDNLEENLEMWDLTPDLEDC([sulfo‑SMCC-hairpin oligonucleotide])","increase in targeted homologous recombination relative to a conventional targeting vector (HPRT, ends not protected)",RAD51 [1],3.5 fold
same,increase of targeted recombination compared with the control vector (HP-HPRT),RAD51 [1],2.6 fold
same,"Fold increase of targeted recombination = ratio of control (HP-HPRT)/ratio of expt. vector (Exp 1, F9 cells)",RAD51 [2],2 fold
same,"Fold increase of targeted recombination = ratio of control (HP-HPRT)/ratio of expt. vector (Exp 2, F9 cells)",RAD51 [2],2.2 fold
same,"Fold increase of targeted recombination = ratio of control (HP-HPRT)/ratio of expt. vector (Exp 4, F9 cells)",RAD51 [2],2.2 fold
"BRC3 bait peptide (mouse BRCA2 residues 1391-1458 with an added C-terminal cysteine), as attached to the targeting vector BRC3-HPRT-NLS (reading uncertain; also: conjugated via oligonucleotide to HPRT targeting DNA) peptide: ERNIKEFNISFQTASGKNTRVSKESLNKSVNIFNRETDELTVISDSLNSKILHGINKDKMHTSSHKKAC([sulfo‑SMCC-hairpin oligonucleotide])",increase in the relative recombination frequency compared to control (HP-HPRT),RAD51 [1],1.5 fold
same,"Fold increase of targeted recombination = ratio of control (HP-HPRT)/ratio of expt. vector (Exp 4, F9 cells)",RAD51 [2],2.2 fold
same,"Fold increase of targeted recombination = ratio of control (HP-HPRT)/ratio of expt. vector (Exp 5, F9 cells)",RAD51 [2],2.3 fold
"BRC5 negative bait peptide (mouse BRCA2 BRC5 repeat with an added C-terminal cysteine), as attached to the targeting vector BRC5-HPRT-NLS (reading uncertain; also: conjugated via oligonucleotide to HPRT targeting DNA) peptide: SSYPVTEDSALAYYTEDSRKTCVRESSLSKGRKWLREQGDKLGTRNTIKIEC([sulfo‑SMCC-hairpin oligonucleotide])","Fold increase of targeted recombination = ratio of control (HP-HPRT)/ratio of expt. vector (Exp 3, F9 cells)",RAD51 [2],1.1 fold
